# Assay: yeast display, Sf9 membrane polyspecificity reagent, FACS + sequencing; frameworks hold sequencing errors
# Method in brief: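 Synthetic nanobody libraries on Saccharomyces cerevisiae BJ5465 were galactose-induced for 36–48 hours, stained 1 hour at 4 °C with 10% biotinylated, detergent-solubilized Sf9 membrane reagent and enriched on streptavidin microbeads. FACS then separated cells into low and high (top ~1%) gates by anti-HA (expression) and streptavidin (reagent binding) fluorescence. Genes were colony-PCR amplified, MiSeq 2 × 250 sequenced and CDR-length filtered. A clone's polyreactivity label is that of its gate of origin.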
row,Sequence,polyreactivity (PSR sort gate)
1,QVQLVESGGALVQARGSLRLSCAASGRTFQIYAKGWDRQGHGKEMELVARITGVGSTNYADSVKGRFTISRDNAKNTVYLQMNSLKPEDTAVYYCAAYWILNNYEMYYWGQGTQVTVSS,low polyreactivity
2,QVHHVESGGGLVQAGGSLRLSCAASGSTFGAHAMGWYRQAPGKERELVAVITWNDGSTYYADSVKGRFKISRDNAKNTVYLQMNSLKPEDTAVYYCAAEYADSWSAFAWNYYYWGQGTQVTVSS,high polyreactivity
3,QVQLVESGGGLVQAGGSLRLSCAASGSTFDHYAMGWYRQAPGKERELVASITLSGGSTYYADSVKGRFTISRDNAKNTVYLQMNSLKPEDTAVYYCNVDYPFYQYGYYYNYNYWGQGTQVTVSS,low polyreactivity
4,QVQLVESVGGLVQAGGSLRLSCAASGRTFSEYAMGWYRQAPGEERELVAAITSTGGITYYADSVKGRFTISRDNAKNTVYLQMNSLKPEDTAVYYCAARAYTWGPAGQVDKYYYWGQGTQVTVSS,high polyreactivity
5,QVQLVESGGGLVQAGGSLRLSCAASGRIFTSYAMGWYRQAPGKERELVAAINRGGSTYYADSVKGRFTISRDNAKNTVYLQMNSLKPEDTAVYYCAAGTRSRAPYYRTIVDTYGYWGQGTQVTVSS,low polyreactivity
6,QVQLVESGGGLVQAGGSLRLSFAASGRIFYVYAMGWYRQAPGKERELVAAITYSGGSTYYADSVKGRFTISRDNAKNTVYLQMNSLKPEDTAVYYCATEGSYTRWSRGLDYWGQGTQVTVSS,low polyreactivity
7,QVQLVESGGGLVQAGGSLRLSCAASGRTFGDYAMGWYRQAPGKERELVAAISGTGGSTYYADSVKGRFTISRDNAKNTVYLQMNSLKPEDTAVYYCAARLKYIRFYYWGQGTQVTVSS,high polyreactivity
8,QVQLVESGGGLVQPGGSLRLSCAASGIISFYNAMGWYRPAPGKERELVAAITWSVGSTYYADSVKGRFTISRDNAKNTVYLQMNSLKPEDTAVYYCNVSPGFWRSIPLYYNLRYGYWGQGTQVTVSS,low polyreactivity
9,QVQLVESGGGLVQAGGSLRLSCAASGSIFQYNAMGWYRQAPGKERELVAAINGGGSTYYADSEKGRFTISRDNAKNTVYLQMNSLKPEDTAVYYCAADGGAYSYRGPGKFGIEDSWGQGTQVTVSS,low polyreactivity
10,QVQLVESGGGLVQAGGSLRLSCAASGSIFPYYAMGWYRQSPGKERELVASSNQSDGTTYYADSVKGRFTISRDNAKNTVYLQMNSLKPEDTAVYYCAADTTLQAFIRYRPIGSYDSWGQGTQVTVSS,low polyreactivity
11,QVQLVESGGGLVQAGGSLRLSCAASGRIFLGNALGWYRQPPGNERELVAAITYSGRSTYYADSVKGRFTISRDHAKNTVYLQMNSLKPEDTAVYFCAARQYWTTDLPFQRYYYWGQGTQVTVSS,low polyreactivity
12,QVQLVESGGGLVQAGGSLRLSCATSGSTSYPYAMGWYRQAPGKERELVAAISTSGSTTYYADSVKVRFTLSRDNAKKTVYLQMNSLKPEDTAVYYCAKGVNFSQYPFSAYGDGGRYDYWGQGTQVTVSS,low polyreactivity
13,QVQLVESGGGLVQAGGSLRLSCAASGSIFARYAMGWYRQAPGKERELVATISYRGSSTYYADSVKGRFTISRDNAKNTVYLQMNSLKPEDTAVYYCAARTYRRIYAYYRFDYWGQGTQVTVSS,low polyreactivity
14,QVQLVESGGGLDPAGGSLRLSCAASGSTFQYNAKGWYRQAPGKERELVAAISGSGGSTYYADSVKGRFTISRDNAKNTVYLQMNSLKPEDTAVYYCNADVSALWWPEEWYNASEFDYWGQGTQVTVSS,low polyreactivity
15,QVQLVESGGGLVQAGGSLRLSCAASGRIFGPYAMGWDRQAPGKERELVAAITWRGDRTYYADSVKGRFTISRDNPKNTVYLQMNSLKPEDTAVYYCAARGGRSEYDYWGQGTQVTVSS,low polyreactivity
16,QVQLVESGGGLFQAGGSLRLSCAASGSIFRAYAMVWYRQAPGKERELVAAITRGGSTNYADSVKGRFTISRDNAKNTVYLQMNSLKPEDTAVYYCAAQNYWYYPRRFDYWGQGTQVTVSS,high polyreactivity
17,QVQLVESGGGLVQAGGSLRLSCAASGFIFDYYAMGWYRQAPVKERELVAAISWSGGSTYYADSVKGRFTISRDNAKNTVYLQMNSLKPEDTAVYYCNSYYQGYWGDFDYWGQGTQVTVSS,high polyreactivity
18,QVQLVESGGGLVQAGGSLRLSCAASGSIFSGNTMGWYRQAPGKERELVAAISGGGSTNYADSVKGRFTISRDNAKNTVYLQMNSLKPEDTAVYYCAAEPDHVADSHSGYDYWGQGTQVTVSS,low polyreactivity
19,QVQLVESGGGLVQAGGSLRLSCAASGFIFYHYAMGWYRQAPGKARELVAAISGRGGSTYYADSVKGRFTISRDNAKNTVYLQMNSLKPEDTAVYYCATDRQRADYYWGQGTQVTVSS,high polyreactivity
20,QVQLVESGGGLVQAGGSLRLSCAASGRTFWGYAMGWYRQAPGKERELVATISSTGSTNYAESVKGRFTISRDNAKNTVYFQMNSLKPEATAVYYCNAKRHVYRGWYQRYDYWGQGTQVTVSS,high polyreactivity
21,QVQLLESGGGLVQAGGSLRLSCAASGSTFYINTMGWSRQAPGKERELVAAISWTGGRTYYADSVKGRFTISRDNAKNTVYLQMHSLKPEDTAVYYCAAYYNIPDRRRVGYDYWGQGTQVTVSS,high polyreactivity
22,QVQLVESGGGLVQAVGSHRLSSAASGFTFRWYTMGWYRQAPGKERELVASIRYGGGSTYYADSVKGRFTISRDNAKNTVYLQMNCLKPEDTAVYYCAAESAWTSPYDYWGQGTQVTVSS,high polyreactivity

row,Sequence,polyreactivity (PSR sort gate)
1,QVQLVESGGGLVQAGGSLRLSCAASGRTFGKYAMGWYSQAPGKERELVAAISSGGTTYYADSVKGRFTISRDNAKNTVYLQMNSVIPEDTAVYYCAADPRYPYNYWGQGTQVTVSS,low polyreactivity
2,QVQLVETGGGLVQAGGSLRLSCAASRSIFARNAMGWYRQAPGKERELVAAISWSGGRTYYADSVKGRFPISRVNAKNTVYLQMNSLKPEDTAVYYCATYTWWGQGTQVTVSS,high polyreactivity
3,QVQLVESGGGLVQAGGSLRLSCAASGSTFRDYAMGWSRQAPGKERELVAVISSSGSRTNYADSVKGRFTISRDNAKNTVYLQMNSLKREDTAVYYCAADTTRRAPGYYYWGQGTQVTVSS,high polyreactivity
4,QVQLVESGGGLVQAGGSLRLSCAASGSIFVTNAMGWYRQAPGKEREWVAAISVSGGSTYYADSVKGRFTISRDNAKNTVYLQMNSLKPEDTAVYYCAAPGRLFSLYDYWGQGTQVTVSS,low polyreactivity
5,QVQLQESDGGLVQAGGSLRLSCAASGSISPQYYRGWYRQAPGKEREFVAISKGTSTYYADSVKGRLTISRVNAKNTVYLQMNSLKPEDTAVYCCAAGRWLQKVHAYWDQGTQVTVSS,low polyreactivity
6,QVQLVESGGGLVQAGGSLRLSCAASGFTFGHYVMGWYRQAPGKERELVAAITLSGGGTYYADSVKGRFTISRDNAKNTVYLQMNSLKTEDTAVYYCAAVRRAEEFDYWGQGTQVTVSS,low polyreactivity
7,QVQLVESGGGLVQAGGSLRLSCAASGRIFRYNTIGWYRQAPGKERELVADITSSDSSTNYADSVKGRFTISRDTAKNTVYLQMNSLKPEDTAVYYCNAVIYFKFDWGQGTQVTVSS,low polyreactivity
8,QVQLVESGGGLVQAGGSLRLSCAASGRIFIYAMGWYRQAPGKERELVAAISWSGGSTYYADSVKGRFTISRDNAKNTVYLQMNSLKPEDTAVYYCAADYEGWGYDYRGDYWGQGSQVTVSS,low polyreactivity
9,QVQLVESGGGLVQAGGSLRLSCAASGRTFKYYAMGWYRQAPGKERELVAAISRRGGRTYYADSVKGRFTISRDNAKNTVYLQMNSLKPEDTAVYYCAAVFETGAGGFYYTLQYDSWGQGTQVTVSS,high polyreactivity
10,QVQLVESGGGLVQAGGSLRLSCAASGYIFAIYAMGCYRQAPGKERELVAAISTSGGSTYYADSVKGRFTISRDNAKNTVYLQMNSLKPDDTAVYYCARPTTYGYYYWGQGTQVTVSS,high polyreactivity
11,QVQLVESGGGLFQAGGSLRLSCAASGRTLLGNAMVWYRQAPGKEREFVAAISYRGGSTYYADSVKGRFTISRDYAKNTVYLQMKSLKPEDTAVYYCAASSFKYSRFDYWGQGTQVTVSS,low polyreactivity
12,QVQLVESGGGLVQAGGSLRLSCAASGSNIGWNTMGWYRQAPGKERELVAAITSGGRTYYADSVKGRFTISRDNAKNTVYLQINSLKPEDTAVYYCKAVVRHTYRRFDYWGQGTQVTVSS,high polyreactivity
13,QVQLVESGGGLVQAGGSLRLSCAASGSIFDRNAMGWYRQAPGIERELVAAITSRGGSTYYADSVKGRFTISRDNAKNTVYLQMNSLKPEDTAVYYCAARYSSRGTYPRRYDYWGQGTQVTVSS,high polyreactivity
14,QVQLVESGGGLVQAGGSLRLSCAASGFTFGWYAMGWYRQSPGKERELVAAISYSGGSTYYADSVKGRFTISRDNAKNTVYLQMNSLKPEDTAVYYCNAVLRLRVDSWGQGTQVTVSS,high polyreactivity
15,QVQLVESGGGLVQAGGSNRLSCAASGYIFDIYAMGCYRQAPVKERELVAVITRSGGGTYYADSVKGRFTISRDNAKNSVYLQMNSLKPEDTAVYYCAAESYVYGGSDYDYWGQGTQVTVSS,low polyreactivity
16,QVQLVESGGGLVQAGGSLRLSCAASGFIFRAYVMGWYRQAPGKERELVAAISYRGGSTNYADSVKGRFTISRDTAKNTVYLHMNSLKPEDTAVYYCAADQVHKREYDYWGQGTQVTVSS,low polyreactivity
17,QVQLVESGGGLVQAGGSLRLSCAASGSTFSRYTMGWYRQAPGKERELVAGISGIGGSTDYADSVKGRFTISRDNAKNTVYLQMNSLKPEDTAVYYCNAEYTASYSRGFWRYYYPFEYWGQGTQVTVSS,high polyreactivity
18,QVQLVESGGGLVQAGGSLRLSCAASGLIFYSYAMGWYRQAPGKERELVAAITGGGSTNYADSVKGRFTISRDNAKNTVYLPMHSLKPEDTAVYYCAAAFTLRKYDYWGQGTQVTVSS,low polyreactivity
19,QVQLVESAGGLVQAGGSLRLSCAASGFTFSSYVMGWYRQAPGKARELVAAISSSGARTYYADSVKGRFTISRDNAKNTVYLQMNSLKPEDNADYYCAAENSPRPYDYWGQGTQVTVSS,high polyreactivity
20,QVQLVESGGGLVQAGGSLRLSCAASGSIFPRNAMGWYRQAPGKERELVAAITSSGGTTYYADSVKGRFTISRDNAKNTVYLQMISLKPEDTAVYYCNAAYPYSSVGRDYWGQGTQVTVSS,high polyreactivity
21,QVQLVESGGGLVQAGGSLRLRCAASGSSFIWNAMGWYRQAPGKERELVAAISSGGSTYYADSVKGRFTISRDNAKNTVDLQMNSQKPPDTAVYYCAAEYVNNVWEQSYAVYSTDDYWGQGTQVTVSS,low polyreactivity

# — the nanobody polyreactivity screen of Harvey et al. (2022)
